Data reported in ChEMBL document CHEMBL2073860, “A third human carnitine/organic cation transporter (OCTN3) as a candidate for the 5q31 Crohn's disease locus (IBD5)” (Biochem Biophys Res Commun, 2003).

Substrate: C[N+](C)(C)CC(O)CC(=O)[O-]
Assay: TP_TRANSPORTER: uptake in Octn3-HepG2 cells
Format: functional, cell-based

B1: Solute carrier family 22 member 21 (Mus musculus), Q9WTN6 (protein)
chain: MLDYDEVTAFLGEWGTFQRLIFFLLSASIIPNGFTGLSAVFLTAIPEHRCRIPDTVNLSSAWRNHSIPMETKDGPEVPQKCRRYRLATIANFSELGLEPGRDVDLEQLEQENCLDGWEYDKDIFLSTIVTEWDLVCKDDWKAPLTTSFFYVGVLLGSFISGQLSDRFGRKNILFLTMAMHTGFSFIQVFSVNFEMFTLLYTLVGMGHISNYVAAFVLGTEMLSKSVRIIFATLGVCIFFAFGFMVLPLFAYFIREWRRLLLAITLPGVLCGALWWFIPESPRWLISQGRIKEAEVIIRKAAKINGIVAPSTIFDPSETNKLQDDSSKKPQSHHIYDLVRTPNIRILTIMSIILWLTISVGYFGLSLDTPNLNGNIYVNCFLLAAVEVPAYVLAWLLLQHVSRRYSMAGSLFLGGSVLLLVQLVPSDLHYLSTTLVMVGKFGITSAYSMVYVYTAELYPTVVRNMGVGVSSTASRLGSILSPYFVYLGAYDRRLPYILMGSLTILTAIITLFFPESSGVSLPETIDEMQKVKKLKQRQSLSKKGSPKESKGNVSRTSRTSEPKGF
Work on B1 yielded a Km of 20 µM.
